A short description of this series: label from the status in PepcDB records.
As for “MDAYSWLLAVIILLPLISASVPIAASVRWKNVGWAIAAVVVSATFAMSVALAWMVPRAEDRLLAHQLGGVEVPIGIELFADEFSVIVLLLVLAVCLGVLVFTRIGGPRGNAFYSGFLLLVGGMMGILLTGDLFNMYVFLEIMAISSYALVSASKYRWSTYAAFKYLLVGTVGAGFYLLGVALVLASTGTLTMRLLPELLAAVGYTDPVVVAAFILMAVGLAIKIALFPVHTWLADAHASAPDGISAVISALVPAVAVYAFARVLFTVYTLDFIAANPVIGNLLLVAALFSLFAGSFFALLQDHIKLVLAYSTVSQFGLIFVGIAIANETAVFGAILQIFGHGVVKASLFVLAGMFALRFGGIRTLKEYSGVAERAPIMAGAFAVLGIAMIGLPPTVGFAGKWYIALGAFEAGLWQVSLLVLGSTLLSAGYILPFINRIYFHPFEGEDVDAAKVTTGMLIAIIIGAGIGLLLGFASAEIQAAVSTAVERLVA”, the protein production result is on record as “failed”.
Then “MRRFLVLLWLLSLALAAPRLVVEPEDGVKPLLDLIASAREEILVKMYLWTPSRMDVVEALGEAARRGVRVRVLLEREPSGGRVDLEVFQALKARGVEVRLTTPFRFVFVHEKSLVVDRKRAWVGTMNLTGSSFAANREYALILDDPAQVAEIAKVFEADWEGERLDLSQALLVWAPSRVLGGVKEGNARETLLALIRGAQRELFLEHQAMADPEVEAALKEALGRGVRVRLLGSPKEPGDTYFLAGALRLKEAGALVRFLPDPYVHAKVLVRDGEEALLGSLNLSANSIQANRELAVRFTAREAPEAFRRLLFVMEGDWEKALPENPFALPPVEGVIPWQEAPRYFGRVATVEGVIQAVEDRGTVAFLKFGPGESDLRLVVFPRSYGLFAQPFPQSYLGKKVRARGRIVLYAGYYEIVLEGPENLEVLDGGP”, with “failed”; and “MPNNVKITSSHRVLMIALLAAAFACYLLVEPYINSIVMAFIISLLMFPVHEWFERKMPKHKNSASLLTCVVLTFIIVIPLLFVFAAIVQQGSVFSQNTYKWVTNGGIQDIFQHPWVIKGLSIVNEYLPFDKIEPKAIAEKIGQFATTFGSNLVAISAKILGDATNFLMDFFLMLFVLFFLLRDHDKIISAIRHILPLSRSQEDRILTEIEQVSKSAVMGSFLTAIAQGLAGGIGMWLAGFPGLFWGTMMGFASFIPVVGTALIWIPAAAYLFLTGDMTWAIFLTAWSVVIVGSIDNLLRPLLMQGSAGMNTLMIFFSLLGGLHLFGLIGLIYGPLIFAVTMVLFNIYEEEFKDFLNQQDNS”, with “failed”; and “MTKQKKLLPVASLLLGAAIWGVAWYPYRLLEQAGMRGELSTTLAYSIALLIGLILFRRQLRISEILNPAAGILFWISLSAGWTGIAYVLGIIHGEVMRVLLLFYLAPLWTILFSRILLQERLSRQGYAIILLSLAGALLLLWQPGSKLPLLASYGDWMGLSGGLAFALTNVLIRKDQQHGIQLKLLAVLSGTALTGFAATLLMESISDITHLHTHAWLILAGIGGLVFFLCILLQYGMTHIPANQAIVIMLFELVVAAIAAHFLTNEYLTGRDWAGGLMIASASLFSARVNRD”, with “failed”.
Then “MQDFWHAASAQLESELTPQQFKTWIKPLTPLSFDEQACMLRIAAPNRFKLDWVKSQFSGRIQSLACDYWEMQVDVQFVLDPTAGQRQAAMQPALAPMPMQPLAAQTMQAQAVPREAPARPTMAPYRETPMATAAHAAADIDVPVMDAAEASTQSYRVPAPAAPAVMGGLSAPPAAPVDDTVHERSRLNPILTFDNLVTGKANQLARAAAVQVANNPGKSYNPLYLYGGVGLGKTHLIHAIGNFMLMENPRARIRYIHAEQYVSDVVKAYQRKAFDDFKRYYHSLDLLLIDDIQFFSGKNRTQEEFFYAFEALIANRAQVIITSDTYPKEITGIDDRLISRFDSGLTVAIEPPELEMRVAILMKKAQAENVTVPEEVAFFVAKHLRSNVRELEGALRKILAYSNFHGKEITIEVTREALKDLLTVQNRQISVENIQKTCADFYNIKVADMYSKKRPANIARPRQIAMYLAKELTQKSLPEIGELFGGRDHTTVLHAVRKIADERSKDAQLNHELHVLEQTLKG”, with “failed”; and “MDDISVSKSNHGNVVVLNIKASSLADTSLPSNKHESSSPPLLSVHFLQKLLAELVGTYYLIFAGCAAIAVNAQHNHVVTLVGIAVVWGIVIMVLVYCLGHLSAHFNPAVTLALASSQRFPLNQVPAYITVQVIGSTLASATLRLLFDLNNDVCSKKHDVFLGSSPSGSDLQAFVMEFIITGFLMLVVCAVTTTKRTTEELEGLIIGATVTLNVIFAGEVSGASMNPARSIGPALVWGCYKGIWIYLLAPTLGAVSGALIHKMLPSIQNAEPEFSKTGSSHKRVTDLPL”, with “failed”; and “MINARGETMARFTVVIPYYQKQHGVLGRALASVFAQTYQDFDLVIVDDESPYPIDQELAEISQEQKDRIVVIKQANAGPGGARNTGLDHVPDGTDYVAFLDSDDMWTPDHLRNAAFALNTYGGECYWASMQASDEFYYHFAISELEKNEGAARLSEKPLVIELPDLASVMLRNWSFLHLSCMVIGRPLFEKIRFDPALRLAAEDVLFFCDSILASKRTLLCDDAGAMRGMGVNIFHSIDNTSPEFLRQQFNTWVALDTLEGRFSRRPADVASIASYKNTARKQALWSQAGNLKRRRAPQFGLLFKWAMRDPALLRAAFELGAGKIVRSRLEHHHHHH”, with “failed”.
Then “MTPSLSGLPPIRTALIGYGFAGKTFHAPLIRAVPALCLEHVVSRDPGRVHADLPEARVSADPDEAIEAADIDLVVIASPNATHASLAERALRAGKHVVVDKPFTVTLAEARRLADLARERPGQVLSVFQNRRFDSDFLAVEAALQAGSIGPVRYFESAIERFRPQVRDRWREHDLPGSGLWFDLGPHLLDQALCLFGVPQRVHGHLRRLREGALTDDWFEVLLDYPHCQVALRASMLAANPAPRFNVHGDHGSLLKAGADIQEAQLLQGLHPGSAGWGRDPDLLQHIDGQGLRQSLVTPAGDQSRYYQALAAAIRGQSRNPVSAQQACALMALLELARRSAEEGRSLPVELRDEERQAWN”, with “failed”.
As for “MAITVKGLTNKLTRTQRRIAVVEFIFSLLFFLPKEAEVIQADFLEYDTKERQLNEWQKLIVKAFSENIFSFQKKIEEQQLKNQLEIQTKYNKISGKKIDLLTTAVVLCALSEQKAHNTDKPLLISEALLIMDHYSQGAEKKQTHALLDKLL”, the protein production entry is “not failed”.
Take “MVTSVSALAVAVVHSVAFAIGRRIGRYNVVDVVWGLGFVAVAVAAATLGHGDPVRRWLLLALVSTWGLRLSWHMYRKTAGQGEDPRYADLLRGATPVQALRKVFGLQGLLTLFVSFPLQLSAVTGPTPKPLLAVGGVGLAVWLVGITFEAVGDWQLWVFKSDPANRGVIMDRGLWAWTRHPNYFGDACVWWGLWLITINDWAPLATVGSPLLMTYLLVDVSGARLTERYLKGRPGFAEYQRRTAYFVPRPPRSARR”: the protein production entry is reported as “failed”.
For “MRFSYIEPRAKYLISKLSKIWVFYIFLSFVVIGGLVWFMHNAIKSTQDNASSLTIQERLYRHEISRLQVKTDETLKLIKEAKKRLNYNDDIRDVLQGLLNIVPDSITINSIEIDQQSVVVSGKTPSKEAFYFLFQNKLNPMFDYSRAEFFPLSDGWFNFVSTNFSNSLLIKNPESIK”, the protein production result is “failed”.
Then “MDTDFRVTGRNAAALFALTIHRGDGMVLLGMDWKNGRPPIDFVGFAIQYREPGTDFFKNVRNRIGFPGQPVPADGIRTTEAPIQKFRWVHFPFNADLPGKFLYRVTPKFMDAAGGLASGEAQEAELALMRETIPGKLNVAFTRGFVSSQAFVRNFAPDAPTIITLVPPVGDEGLDFVPTHADAERALAWMGFEARAETLDLLDRAQAAGAEVRVIAYDLNLPEVVTRLEALGPKLKIIIDDSARTDGHGRPDSPETKAAERLIASAGAANVKRQHMANLQHQKSIAVRGGGISTVLYGSTNLSWRGLYVQSNNSLAVHSEKAIDDYFTAFESYFTAKRAADFRSSASSAGWIDLGLDGVDAKVAFSPHSDANGRLDEIGADIDTAQSSVLFSLAFLGQMTRGAIGPALGRALERPEVHVMGIADAEVRAGNLGLNVLTPDNRRRVVRAAALTGNVPPPFLTEPSGLAGVDGNQRGTRMHHKFVVLDFDKPTARVYLGSYNFSNPADDENGENLVVVRDRTVATSYMIEALRMYDHYVFRVASEASDGPARPLELKRPPQPGGTPWFERDWTDPIRARDRELFARAE”, with “failed”.
For “ESRLDRILESGVLRVATTGDYKPFSYRTEEGGYAGFDVDMAQRLAESLGAKLVVVPTSWPNLMRDFADDRFDIAMSGISINLERQRQAYFSIPYLRDGKTPITLCSEEARFQTLEQIDQPGVTAIVNPGGTNEKFARANLKKARILVHPDNVTIFQQIVDGKADLMMTDAIEARLQSRLHPELCAVHPQQPFDFAEKAYLLPRDEAFKRYVDQWLHIAEQSGLLRQ”, the protein production entry is on record as “failed”.
Then “MIMINKTKRLMVSRQVKIPRKTYFWGPTPNPGMHPKDQSVTLLSIIRDYLKLSDKEREAARILANGLVKVDGKTVREKKFAVGFMDVIEINGESYRVVYNDQGALVLMKETKERASMKLLKVRSKVIAPGNRIQLGTHDGRTFITDDKSKKVGDVWAVSVPDMKISEIIKMQPGNKAYITAGSHVNQTGTISKIEAKEGSSANLVHFQEGFSTIKDHVFMIGSSKFSFVLSPEEVIPLEHHHHHH”, with “not failed”; and “MINLVEFNLFLDLLGSALLLSLPWLLLGIIISSTFLIWTDEQKWVANFPRNRLLSSLVGSALGFLLPLGAFGSVPLVRRLLLQGAPIPLAVSFLVAAPTLNIFAIVRVLSSRQSQYGLIFLCISCSWLMAIVMGLVFSTYRLARQQAEDEGETALLNIPLLRSGALIILQSSMEASPRQGGLVFASGVNPVADFSWRQKLHLFGRNIIEEFQEFGGVLVIGTAIACGIVFFLPQAWLLQWAGLGPVRQTVLMMGWSFILPLGNFSNPDLLAPLGEQLWRGSMVAFLLWGSLFNLQTIGLWLVTLRLRPLSYLVVLVGLSVFLFAMVTNYYLS”, with “failed”; and “MKELIRKLTEAFGPSGREEEVRSIILEELEGHIDGHRIDGLGNLIVWKGSGEKKVILDAHIDEIGVVVTNVDDKGFLTIEPVGGVSPYMLLGKRIRFENGTIGVVGMEGETTEERQENVRKLSFDKLFIDIGANSREEAQKMCPIGSFGVYDSGFVEVSGKYVSKAMDDRIGCAVIVEVFKRIKPAVTLYGVFSVQEEVGLVGASVAGYGVPADEAIAIDVTDSADTPKAIKRHAMRLSGGPALKVKDRASISSKRILENLIEIAEKFDIKYQMEVLTFGGTNAMGYQRTREGIPSATVSIPTRYVHSPSEMIAPDDVEATVDLLIRYLGA”, with “not failed”.

(Values after a protein production outcome set (Wang et al. 2014).)
